Assay results published in the supplement of paper PMC7125110.
± gives the standard error. This sample holds only a part of the variants without activity.

B1: glmS ribozyme (parent)
chain: AUAAAAGCGCCAGAACUACAGAAAUGUAGUUGACGAGGAGGAGGUUUAUCGAAUUUUCGGCGGAUGCCUCCAAA

How the values were obtained:
Conditions in all cases: with glucosamine-6-phosphate
[1] = variants of: B1; assay: self-cleavage kobs at 640 uM GlcN6P; higher = faster cleavage; RNA array
Method in brief: (§1)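 Glucosamine-6-phosphate (40 μM to 10 mM) in HEPES/KCl/Mg(OAc)2 buffer was flowed over sequenced MiSeq chips, and tiles were imaged over ~14 h. Barcoded ribozyme variants there had been transcribed in situ by E. coli RNA polymerase and were tracked through a hybridised Cy3 probe at 37 °C. One- or two-exponential decay fits to per-tile medians, normalised to baseline and to non-cleaving reference variants, gave kobs. kcat and KM came from weighted Michaelis–Menten fits across concentrations.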

[2] = variants of: B1; assay: self-cleavage kobs at 2500 uM GlcN6P; higher = faster cleavage; RNA array
Method in brief: as §1

[3] = variants of: B1; assay: self-cleavage kobs at 10000 uM GlcN6P; higher = faster cleavage; RNA array
Method in brief: as §1

| Variant | self-cleavage kobs at 640 uM GlcN6P [1] [s⁻¹] | self-cleavage kobs at 2500 uM GlcN6P [2] [s⁻¹] | self-cleavage kobs at 10000 uM GlcN6P [3] [s⁻¹] |
| --- | --- | --- | --- |
| A36G G62A | < 1e-05 | < 1e-05 | < 1e-05 |
| G44U C58A G59U | < 1e-05 | < 1e-05 |  |
| C11U G43A U46A U55G U65G G66A | < 1e-05 | < 1e-05 |  |
| G40U U45C C67G | 4.79e-05 ± 1.9e-05 | 7.13e-05 ± 1.7e-05 |  |
| G32C U56A | 3.99e-05 ± 1.8e-05 | 2.05e-05 ± 9.8e-06 | 5.18e-05 ± 7.3e-06 |
| C16U G29A U31G | 0.00216 ± 0.00066 | 0.0232 ± 0.011 |  |
| G35U G38U G41C | < 1e-05 | < 1e-05 |  |
| C11A A53U U69C C71U | 0.000106 ± 4.9e-05 | 5.97e-05 ± 2.3e-05 |  |
| A14G A15G U31G U45G C61G | < 1e-05 | < 1e-05 |  |
| A6U G35A G43U | < 1e-05 | < 1e-05 |  |
| U49C U65A | < 1e-05 |  | < 1e-05 |
| C11A A15G G32C A33U | < 1e-05 |  |  |
| C10G U55A U57A | < 1e-05 |  |  |
| A6C G13A G63A | < 1e-05 | < 1e-05 |  |
| G9A G13C A64G C70U | < 1e-05 |  |  |
| G13A G51U | < 1e-05 | < 1e-05 | < 1e-05 |
| A14U G35A G63U | < 1e-05 |  |  |
| G9U U30C U57A | < 1e-05 | < 1e-05 |  |
| A33U U46C G63A | < 1e-05 | < 1e-05 |  |
| A15C C16G A39C | 3.83e-05 ± 1.7e-05 | 0.000198 ± 3.4e-05 |  |
| G35U U47G A52G C70A | 9.25e-05 ± 3.2e-05 |  |  |

| Variant | self-cleavage kobs at 640 uM GlcN6P [1] [s⁻¹] | self-cleavage kobs at 2500 uM GlcN6P [2] [s⁻¹] | self-cleavage kobs at 10000 uM GlcN6P [3] [s⁻¹] |
| --- | --- | --- | --- |
| U30G U49C | < 1e-05 | < 1e-05 |  |
| G32A G35U U57A | < 1e-05 |  |  |
| G9U A36U G40U G60A | < 1e-05 |  |  |
| A52C A53G G60C U65C | < 1e-05 |  |  |
| U49A G63U | < 1e-05 |  |  |
| G35A G43C A53U U54A | < 1e-05 | < 1e-05 |  |
| C11A C58U G59U G62U C70U | < 1e-05 |  |  |
| G21U U45C C68U | 0.000572 ± 0.0001 | 0.000312 ± 8e-05 | 0.00114 ± 0.00043 |
| G7A C8U G13U A15C A39C U55G U57A | < 1e-05 |  |  |
| G29U U55A A64G | 0.000889 ± 0.00022 | 0.00375 ± 0.00061 |  |
| C8U G32C U45C | < 1e-05 | < 1e-05 |  |
| A14U C34U G35A C71U | < 1e-05 |  |  |
| G13C U30A G41U G63A A64C | < 1e-05 | < 1e-05 |  |
| G43U G51C G59C G62U C68U | < 1e-05 |  |  |
| G13U A15G A52C | < 1e-05 | < 1e-05 |  |
| U30G A39C U54G | 0.0002 ± 3.1e-05 | 0.00053 ± 8.2e-05 | 0.00136 ± 0.0002 |
| G9A G38U U57A | < 1e-05 |  |  |
| A12G U31A | 5.56e-05 ± 9.9e-06 | 7.25e-05 ± 1.1e-05 | 0.000227 ± 2.4e-05 |
| A42U C61G G66A | < 1e-05 |  |  |
| A53G G66C C71G | 8.43e-05 ± 2.2e-05 |  |  |
| G38C U49A | < 1e-05 | < 1e-05 | < 1e-05 |

| Variant | self-cleavage kobs at 640 uM GlcN6P [1] [s⁻¹] | self-cleavage kobs at 2500 uM GlcN6P [2] [s⁻¹] | self-cleavage kobs at 10000 uM GlcN6P [3] [s⁻¹] |
| --- | --- | --- | --- |
| C10G G66U C68G C71A | 8.79e-05 ± 3.1e-05 |  |  |
| A39U A52G U54G U57C | 3.84e-05 ± 1.7e-05 | 0.00016 ± 4.9e-05 |  |
| G32C G63U U69G | 0.00126 ± 0.00029 |  |  |
| A6G A12U U56A C71U | 8.01e-05 ± 2.1e-05 | 9.57e-05 ± 2.8e-05 |  |
| G32C G35A A36G | < 1e-05 |  |  |
| C8U G37C A52G | < 1e-05 |  |  |
| G9A G66U | < 1e-05 | < 1e-05 |  |
| G35C G43U C61U | < 1e-05 | < 1e-05 |  |
| C16G A39C G41U U56C C67U | < 1e-05 |  |  |
| C10A G35C U55C | < 1e-05 | < 1e-05 |  |
| A36G U45A C61U U69G C70A | < 1e-05 | < 1e-05 |  |
| G41U C50U G60C | < 1e-05 |  |  |
| C8A A15G A36C | < 1e-05 |  |  |
| A33G G43U C70G | < 1e-05 |  |  |
| U31C A39U C67A | 0.000787 ± 0.00025 | 0.000712 ± 0.00021 | 0.000846 ± 0.0002 |
| C50G A52U G63C | < 1e-05 | < 1e-05 |  |
| C50A G60C C68U | 4.56e-05 ± 2.1e-05 |  |  |
| U47A G66U C68A | 0.00243 ± 0.00077 | 5.79e-05 ± 1.7e-05 |  |
| G7U C71A | < 1e-05 |  | < 1e-05 |
| C34G G37U A39G C58U C61G | 0.00305 ± 0.001 |  |  |
